# In article PMC6988089 (Journal of the American Chemical Society, 2019):
# Like-named read-outs stand apart in the source and are kept apart here.
# B1: TAMRA-labeled H3K9me3 peptide (peptide)
# chain: ARTKQTARKSTGGKA
# modifications: trimethyl-lysine at 9; tetramethylrhodamine (TAMRA) label, position not stated
# B2: TAMRA-labeled allyl-modified H3K9 peptide (peptide)
# chain: ARTKQTARKSTGGKA
# modifications: allyl-lysine at 9; tetramethylrhodamine (TAMRA) label, position not stated
# B3: H3K9me2 peptide (peptide)
# chain: ARTKQTARKSTGGKA
# modifications: dimethyl-lysine at 9
# B4: TAMRA-labeled pentenyl-modified H3K9 peptide (peptide)
# chain: ARTKQTARKSTGGKA
# modifications: pentenyl-lysine at 9; tetramethylrhodamine (TAMRA) label, position not stated
# Experiments:
# CBX1 chromodomain F50A = CBX1 chromodomain F50A (human, UniProt P83916 20-73, F50A); test: fluorescence polarisation
# [1] = target: T1, wild-type CBX1 chromodomain (human, UniProt P83916 20-73); test: fluorescence polarisation
# [2] = target: T1, wild-type CBX1 chromodomain
# Sequence of CBX1 chromodomain F50A (P83916 20-73 F45A): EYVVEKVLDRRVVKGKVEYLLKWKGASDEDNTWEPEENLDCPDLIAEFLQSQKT
# T1 sequence (P83916 20-73): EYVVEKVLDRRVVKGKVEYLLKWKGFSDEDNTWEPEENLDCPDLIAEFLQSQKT
Binder,Kd (CBX1 chromodomain F50A),further results
B1,63.5 ± 6.2 µM,–
B2,–,Kd [1]: 106 ± 20 µM
B3,–,Kd [2]: 18.3 µM
B4,14.1 ± 2.8 µM,–
